# Target: T1, HIS-AIF_(103-613) (human, UniProt O95831 103-613)
# T1 construct: apoptosis-inducing factor (AIF, encoded by AIFM1), human, residues 103-613; also called apoptosis-inducing factor; source: E. coli BL21+DE3(RIPL), 0.5 mmol/L IPTG 3 h at 37 °C, purified
# Assay: AlphaScreen or HTRF; His-AIF_(103-613) (5 μL at 300 nmol/L) and GST-CHCHD4 (5 μL at 100 nmol/L, 2 h) coupled by their tags to donor and acceptor beads (5 μg/mL, 3 h at 23 °C in the dark); 384-well plates, 25 μL, 0.1% BSA/PBS; N27 at 3 μmol/L as positive control of inhibition
# Settings: both partners purified
# T1 sequence (O95831 103-613): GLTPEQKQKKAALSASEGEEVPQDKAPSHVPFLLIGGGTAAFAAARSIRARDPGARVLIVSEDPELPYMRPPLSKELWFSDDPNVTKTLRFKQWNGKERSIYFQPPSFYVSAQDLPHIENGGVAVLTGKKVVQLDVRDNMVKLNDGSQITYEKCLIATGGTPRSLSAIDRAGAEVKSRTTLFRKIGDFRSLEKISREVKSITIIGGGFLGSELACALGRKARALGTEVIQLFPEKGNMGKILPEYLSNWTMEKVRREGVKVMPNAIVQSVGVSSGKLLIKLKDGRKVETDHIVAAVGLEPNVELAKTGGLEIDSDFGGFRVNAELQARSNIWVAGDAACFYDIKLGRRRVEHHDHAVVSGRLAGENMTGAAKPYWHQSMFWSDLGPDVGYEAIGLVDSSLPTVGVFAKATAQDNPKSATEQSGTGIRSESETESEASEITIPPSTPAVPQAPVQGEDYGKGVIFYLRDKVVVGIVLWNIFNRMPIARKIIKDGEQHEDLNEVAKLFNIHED
row,binding result,Binder
1,binds,"GST-CHCHD4 (natural protein, human, UniProt Q8N4Q1 1-142, looked up, coiled-coil-helix-coiled-coil-helix domain-containing protein 4 (CHCHD4), human; it is printed both as GST-CHCHD4 and as CHCHD4-Gst; also called CHCHD4-Gst; coiled-coil-helix-coiled-coil-helix domain-containing protein 4; source: E. coli BL21+DE3(RIPL), 0.5 mmol/L IPTG 3 h at 37 °C, purified) MSYCRQEGKDRIIFVTKEDHETPSSAELVADDPNDPYEEHGLILPNGNINWNCPCLGGMASGPCGEQFKSAFSCFHYSTEEIKGSDCVDQFRAMQECMQKYPDLYPQEDEDEEEEREKKPAEQAEETAPIEATATKEEEGSS"
2,binds,"MSYCRQEGKDRIIFVTKEDHETPSSAE (peptide, UniProt Q8N4Q1 1-27, looked up, synthetic peptide corresponding to the N-terminal 27 amino acids of CHCHD4; source: synthetic peptide) [peptide N27]"
